Patent US20130224224A1 (Boehringer Ingelheim, published 2013)
Like-named read-outs stand apart in the source and are kept apart here.

T1: human CX3CR1 (human, UniProt P49238 1-355)
T1 construct: overexpressed on CHO, BA/F3 or HEK293T cells; also called huCX3CR1; hCX3CR1
T1 sequence: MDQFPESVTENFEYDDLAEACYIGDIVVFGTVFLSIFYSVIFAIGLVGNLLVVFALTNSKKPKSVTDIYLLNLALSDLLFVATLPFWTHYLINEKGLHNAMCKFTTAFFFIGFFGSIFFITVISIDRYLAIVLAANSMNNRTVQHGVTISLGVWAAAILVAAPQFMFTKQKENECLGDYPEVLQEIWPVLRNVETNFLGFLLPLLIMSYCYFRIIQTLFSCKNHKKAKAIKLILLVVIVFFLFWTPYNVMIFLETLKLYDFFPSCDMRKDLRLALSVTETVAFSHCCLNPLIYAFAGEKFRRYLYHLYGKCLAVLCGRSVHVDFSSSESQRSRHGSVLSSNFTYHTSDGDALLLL

T2: cynomolgus CX3CR1 (cynomolgus, UniProt P49238 1-355 (human entry))
T2 construct: transiently expressed on HEK293T cells; also called cyCX3CR1; cyno CX3CR1
T2 chain: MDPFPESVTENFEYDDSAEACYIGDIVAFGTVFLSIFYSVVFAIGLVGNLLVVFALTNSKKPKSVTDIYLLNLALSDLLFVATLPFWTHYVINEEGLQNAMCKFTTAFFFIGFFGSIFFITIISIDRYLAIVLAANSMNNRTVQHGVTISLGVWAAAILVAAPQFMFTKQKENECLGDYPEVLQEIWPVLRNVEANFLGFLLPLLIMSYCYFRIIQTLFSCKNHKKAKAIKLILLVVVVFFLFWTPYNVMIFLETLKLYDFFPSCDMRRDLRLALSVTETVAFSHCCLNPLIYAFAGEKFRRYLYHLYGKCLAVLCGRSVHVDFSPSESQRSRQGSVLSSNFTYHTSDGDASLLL

B1: CX3CR1BII012 (VHH)
chain: EVQLVESGGGSVQAGGSLRLSCAASGSIFSSNAMAWYRQAPGKQRDLVAGINSVGITKYADSVKGRFTISRDNAKNTVYLQMNSLKPEDTAVYYCTSDPRRGWDTRYWGQGTLVTVSSGGGGSGGGGSGGGGSGGGGSGGGGSGGGGSGGGGSKVQLVESGGGLVQPGGSLRLSCATSGTIFSNNAMGWYRQAPGKKRDLVASISSSGSTNYADSVKGRFTVSRDNDKNTGYLQMNSLKPEDTGVYYCTLDARRGWNTAYWGQGAQVTVSS
notes: expressed in E. coli as described for the monovalent VHHs
B2: CX3CR1BII026 (VHH)
chain: EVQLVESGGGLVQAGGSLRLSCVASGRTFSSYAMGWFRQAPGKERAFVAGISGSASRKYYADSVKGRFTVSRDNARNTVYLQMNSLKPEDTAVYYCAASNSYPKVQFDYYGQGTQVTVSSGGGGSGGGGSGGGGSGGGGSGGGGSGGGGSGGGGSEVQLVESGGGSVQAGESLRLSCAASGSIFSSNAMAWYRQAPGKRRDLVAAINSVGVTKYADSVKGRFTISRDNAKNTVYLQMNSLKPEDTAVYYCTSDPRRGWDTRYWGQGTQVTVSS
notes: as for B1
B3: CX3CR1BII027 (VHH)
chain: EVQLVESGGGLVQAGGSLRLSCVASGRTFSSYAMGWFRQAPGKERAFVAGISGSASRKYYADSVKGRFTVSRDNARNTVYLQMNSLKPEDTAVYYCAASNSYPKVQFDYYGQGTQVTVSSGGGGSGGGGSGGGGSGGGGSGGGGSGGGGSGGGGSEVQLVESGGGSVQAGESLRLSCAASGSIFSSNAMAWYRQAPGKQRDLVAGINSVGITKYADSVKGRFTISRDNAKNTAYLQMNSLKPEDTAVYYCTSDPRRGWDTRYWGQGTLVTVSS
notes: as for B1
B4: 66B02-mFc (Fc fusion)
chain: EVQLVESGGGSVQAGESLRLSCAASGSIFSSNAMAWYRQAPGKRRDLVAAINSVGVTKYADSVKGRFTISRDNAKNTVYLQMNSLKPEDTAVYYCTSDPRRGWDTRYWGQGTLVTVSSGGGGSGGGGSGGGGSPPCKCPAPNLLGGPSVFIFPPKIKDVLMISLSPIVTCVVVAVSEDDPDVQISWFVNNVEVHTAQTQTHREDYNSTLRVVSALPIQHQDWMSGKEFKCKVNNKDLPAPIERTISKPKGSVRAPQVYVLPPPEEEMTKKQVTLTCMVTDFMPEDIYVEWTNNGKTELNYKNTEPVLDSDGSYFMYSKLRVEKKNWVERNSYSCSVVHEGLHNHHTTKSFSRTPGK
notes: 66B02 VHH fused to a mouse IgG2 Fc domain with D265A in CH2; expressed in HEK293T or NS0 cells; dimer form is told only as an aspect
B5: 306D-hFc (Fc fusion)
chain: DVQLVESGGGLVQPGGSLRLSCAASGSIFSSTAMAWYRQAPGKRRDLVAAISSVGVTKYADSVKGRFTISRDNSKNTVYLQMNSLRPEDTAVYYCTSDPRRGWDTRYWGQGTLVTVSSGGGGSGGGGSGGGGSCPPCPAPEAAGGPSVFLFPPKPKDTLMISRTPEVTCVVVDVSHEDPEVKFNWYVDGVEVHNAKTKPREEQYNSTYRVVSVLTVLHQDWLNGKEYKCKVSNKALPAPIEKTISKAKGQPREPQVYTLPPSREEMTKNQVSLTCLVKGFYPSDIAVEWESNGQPENNYKTTPPVLDSDGSFFLYSKLTVDKSRWQQGNVFSCSVMHEALHNHYTQKSLSLSPGK
notes: CX3CR1BII00306 fused to a human IgG1 Fc domain with two mutations in CH2; expressed in HEK293T or NS0 cells
B6: 307D-hFc (Fc fusion)
chain: DVQLVESGGGLVQPGGSLRLSCAASGSIFSSTAMAWYRQAPGKRRDLVAAISTVGVTKYADSVKGRFTISRDNSKNTVYLQMNSLRPEDTAVYYCTSDPRRGWDTRYWGQGTLVTVSSGGGGSGGGGSGGGGSCPPCPAPEAAGGPSVFLFPPKPKDTLMISRTPEVTCVVVDVSHEDPEVKFNWYVDGVEVHNAKTKPREEQYNSTYRVVSVLTVLHQDWLNGKEYKCKVSNKALPAPIEKTISKAKGQPREPQVYTLPPSREEMTKNQVSLTCLVKGFYPSDIAVEWESNGQPENNYKTTPPVLDSDGSFFLYSKLTVDKSRWQQGNVFSCSVMHEALHNHYTQKSLSLSPGK
notes: CX3CR1BII00307 fused to a human IgG1 Fc domain with two mutations in CH2; expressed in HEK293T or NS0 cells

Key:
human CX3CR1 [1] = target: T1, human CX3CR1; assay: FACS binding, HEK293T human CX3CR1
cynomolgus CX3CR1 [2] = target: T2, cynomolgus CX3CR1; assay: FACS binding, cynomolgus against human CX3CR1
human CX3CR1 [3] = target: T1, human CX3CR1; assay: cell-based or functional assay
cynomolgus CX3CR1 [4] = target: T2, cynomolgus CX3CR1; assay: FACS binding, HEK293T cynomolgus CX3CR1
human CX3CR1 [5] = target: T1, human CX3CR1; assay: A647-fractalkine competition FACS, CHO-huCX3CR1
Source text: Periplasmic extracts were screened in a human CX3CR1/human Fractalkine FACS competition assay to assess the blocking capacity of the expressed VHHs. Human CX3CR1 was presented on CHO cells overexpressing CX3CR1. Both a setup using cells harvested from an actively growing culture and a setup using frozen cells was used. As a detection reagent labeled fractalkine was used (R&D Systems, Minneapolis, Minn., USA) labeled with alexa647 (A647-Fractalkine) at a degree of labeling of 1. To setup the assay, first a titration series of the labeled fractalkine was performed on the CHO-huCX3CR1 cells in order to determine the EC50 value for binding. Initially screening was performed at a higher concentration of fractalkine (3 nM) to increase the assay robustness. To increase the sensitivity of the screening to a maximum, the EC30 concentration (1 nM) was chosen for subsequent screening. In brief 50 μl of periplasmic extract was added to 6 nM labeled fractalkine (50 μ;) and 200 000 CHO-huCX3CR1 cells. After one hour incubation at 4 C, cells were washed three times before read out was performed on a FACS Array (Becton Dickinson). First a gate was set on the intact cells as determined from the scatter profile. Next, dead cells were gated out by their fluorescence profile from the PI stain (Sigma, St Louis, US). The fluorescence profile from the alexa647 label was determined for each sample and used for calculation of blocking capacity. As controls, conditions were taken along where there was no VHH present in the peri extract or a known irrelevant VHH and samples were included where excess cold fractalkine was included. For each sample the percentage block was determined using the control samples to determine the assay window.
The inhibition of ligand binding to human CX3CR1 was investigated for the different formats as described in Example 4. For this characterization the BA/F3-huCX3CR1 cell line was used showing stable expression of the human CX3CR1 receptor. The alexa647 labeled ligand fractalkine was used at its EC30 concentration and thereby obtained IC50 values are reflective of the Ki values.

human CX3CR1 [6] = target: T1, human CX3CR1; assay: A647-fractalkine competition FACS, BA/F3-huCX3CR1
human CX3CR1 [7] = target: T1, human CX3CR1; assay: A647-fractalkine competition FACS, BA/F3-huCX3CR1; remark: listed apart in the source
human CX3CR1 [8] = target: T1, human CX3CR1; assay: cell-based or functional assay; remark: listed apart in the source
human CX3CR1 [9] = target: T1, human CX3CR1; assay: cell-based or functional assay; remark: listed apart in the source
human CX3CR1 [10] = target: T1, human CX3CR1; assay: A647-fractalkine competition FACS, BA/F3-huCX3CR1; remark: listed apart in the source

Binder | % block, fractalkine induced chemotaxis (human CX3CR1 [3]) [%] | IC50, fractalkine induced chemotaxis (human CX3CR1 [3]) [nM] | IC50 (human CX3CR1 [6]) [nM] | IC50, Calcium influx (human CX3CR1 [9]) [nM] | IC50, Chemotaxis (human CX3CR1 [9]) [nM] | IC50, Ligand internalization (human CX3CR1 [9]) [nM] | IC50 (human CX3CR1 [10]) [nM] | further results
B1 | 78 | 4 |  |  |  |  |  | EC50 (human CX3CR1 [1]): 0.056 nM; ratio (cynomolgus/human EC50) (cynomolgus CX3CR1 [2]): 1.1; EC50 (cynomolgus CX3CR1 [4]): 0.063 nM; % block (human CX3CR1 [5]): 93%; IC50 (human CX3CR1 [5]): 0.8 nM
B2 | 98 | 0.3 | 0.7 |  |  |  |  | 
B3 | 98 | 0.9 | 0.67 |  |  |  |  | 
B4 |  |  |  |  |  |  |  | IC50 (human CX3CR1 [7]): 0.57 nM; IC50, Calcium influx (human CX3CR1 [8]): 0.98 nM; IC50, Chemotaxis (human CX3CR1 [8]): 0.89 nM; IC50, Ligand internalization (human CX3CR1 [8]): 0.52 nM
B5 |  |  |  | 1.3 | 2.9 | 0.48 | 0.69 | 
B6 |  |  |  | 3.2 | 3 | 0.37 | 0.7 | 
